# Laboratory results published in patent publication US20220064233A1.
# B1: monoclonal antibody 61D8 (IgG) (antibody, V domains shown)
# VH: CKASGYSFTSYWMHWVKQRPGQGLEWIGMIDPSDSETKLNQQFKDKATLTVDTSSSTAYMQLTSPTSEDSVVYYCARGKMGGRFYFDYLGQGTTLTVSS
# VL: ITCKASQDVGTAVVWYQQKPGQSPKLLIYWASTRHTGVPDRFTGSGFGTDFTLTISNVQSEDLADYFCQQFSSYPYTFGGGTKLEIKR
# Biological target: 14R1 revertant mutant E
# Experiment: ELISA, epitope mapping
binder,measurement,value
B1,fold reduction in 61D8 binding (against 14R1),30 fold
